Source: patent publication US7977317B2, “Compositions and methods for modulating blood-brain barrier transport” (Raptor Pharmaceutical Inc., priority 2001, dated 2011)
Like-named read-outs stand apart in the source and are kept apart here.

B1: lactoferrin: lactoferrin (Lf), LRP ligand used as competitor (protein, UniProt P02788 20-710, looked up)
Lactotransferrin: GRRRSVQWCAVSQPEATKCFQWQRNMRKVRGPPVSCIKRDSPIQCIQAIAENRADAVTLDGGFIYEAGLAPYKLRPVAAEVYGTERQPRTHYYAVAVVKKGGSFQLNELQGLKSCHTGLRRTAGWNVPIGTLRPFLNWTGPPEPIEAAVARFFSASCVPGADKGQFPNLCRLCAGTGENKCAFSSQEPYFSYSGAFKCLRDGAGDVAFIRESTVFEDLSDEAERDEYELLCPDNTRKPVDKFKDCHLARVPSHAVVARSVNGKEDAIWNLLRQAQEKFGKDKSPKFQLFGSPSGQKDLLFKDSAIGFSRVPPRIDSGLYLGSGYFTAIQNLRKSEEEVAARRARVVWCAVGEQELRKCNQWSGLSEGSVTCSSASTTEDCIALVLKGEADAMSLDGGYVYTAGKCGLVPVLAENYKSQQSSDPDPNCVDRPVEGYLAVAVVRRSDTSLTWNSVKGKKSCHTAVDRTAGWNIPMGLLFNQTGSCKFDEYFSQSCAPGSDPRSNLCALCIGDEQGENKCVPNSNERYYGYTGAFRCLAENAGDVAFVKDVTVLQNTDGNNNEAWAKDLKLADFALLCLDGKRKPVTEARSCHLAMAPNHAVVSRMDKVERLKQVLLHQQAKFGRNGSDCPDKFCLFQSETKNLLFNDNTECLARLHGKTTYEKYLGPQYVAGITNLKKCSTSPLLEACEFLRK
B2: p97: recombinant human melanotransferrin (p97), provided by Synapse Technologies (protein, UniProt P08582 20-709, looked up)
Melanotransferrin: GMEVRWCATSDPEQHKCGNMSEAFREAGIQPSLLCVRGTSADHCVQLIAAQEADAITLDGGAIYEAGKEHGLKPVVGEVYDQEVGTSYYAVAVVRRSSHVTIDTLKGVKSCHTGINRTVGWNVPVGYLVESGRLSVMGCDVLKAVSDYFGGSCVPGAGETSYSESLCRLCRGDSSGEGVCDKSPLERYYDYSGAFRCLAEGAGDVAFVKHSTVLENTDGKTLPSWGQALLSQDFELLCRDGSRADVTEWRQCHLARVPAHAVVVRADTDGGLIFRLLNEGQRLFSHEGSSFQMFSSEAYGQKDLLFKDSTSELVPIATQTYEAWLGHEYLHAMKGLLCDPNRLPPYLRWCVLSTPEIQKCGDMAVAFRRQRLKPEIQCVSAKSPQHCMERIQAEQVDAVTLSGEDIYTAGKTYGLVPAAGEHYAPEDSSNSYYVVAVVRRDSSHAFTLDELRGKRSCHAGFGSPAGWDVPVGALIQRGFIRPKDCDVLTAVSEFFNASCVPVNNPKNYPSSLCALCVGDEQGRNKCVGNSQERYYGYRGAFRCLVENAGDVAFVRHTTVFDNTNGHNSEPWAAELRSEDYELLCPNGARAEVSQFAACNLAQIPPHAVMVRPDTNIFTVYGLLDKAQDLFGDDHNKNGFKMFDSSNYHGQDLLFKDATVRAVPVGEKTTYRGWLGLDYVAALEGMSSQQC

What was measured:
[1] = target: BBCEC monolayers; settings: −saponin, cited from earlier work
[2] = Brain uptake one hour after i.v. injection; format: in vivo; settings: mice, one hour after i.v. injection of [125I]-protein (FIG. 11a)
Experimental: FIG. 11 examines the accumulation and transcytosis of p97. FIG. 11a, of [^125I]-p97, [^125I]-BSA and [^125I]-holo-transferrin one hour after i.v. injection. The radioactivity in brain was compared between the three compounds. (n=3); FIG. 11b, Accumulation of p97 and transferrin into the mouse brain parenchyma. In situ brain perfusion was performed with human [^125I]-p97 or [^125I]-holo-transferrin at a final concentration of 10 nM via a catheter inserted in the right common carotid artery. The volume of distribution (VD) of [^125I]-proteins were obtained in the whole brain homogenate (white bars), in brain capillaries (solid bars) and in brain parenchyma (hatched bars) after isolation of the right hemisphere and capillary depletion. Results were obtained for p97 (n=10) and for holo-transferrin (n=6); FIG. 11c, Transcytosis of p97 across BBCEC monolayers. Transcytosis experiments were performed 37° C. (open circles) and 4° C. (closed circles) with BBCEC monolayers. […] Apical-to-basal and basal-to-apical transport of [^125I]-p97 (25 nM) was measured for 2 hrs at 37° C. At the end of the experiment, [^125I]-p97 was assessed in the lower or upper chambers of each well by TCA precipitation (n=4).
A. Brain uptake and in situ brain perfusion. […] The serum and brain samples were collected and the levels of radioactivity were measured. […]

[3] = test system: BBCEC monolayers; experiment: Transcytosis of bovine [125I]-lactoferrin across BBCEC monolayers, inhibition by p97; format: cell-based; settings: 200-fold molar excess of unlabelled p97, 37° C. (FIG. 16c)
[4] = test system: Cubilin; experiment: RT-PCR after p97 treatment in U-87 cells: Cubilin; format: cell-based, human; settings: 72 hours, RT-PCR (FIG. 35)
Experimental: FIG. 35. Effect of p97 and RAP treatments in U-87 cells (RT-PCR). Cells (2×10^5) were plated onto six-multiwell microplates and grown at 37° C. under 5% CO2 with optimal culture medium supplemented with serum for 4 days. Treatment was performed in serum free medium for 72 hours. RNA isolation and RT-PCR were performed as described in the Examples. The amplified PCR products were electrophoresed on a 2% agarose gel and visualized under ultraviolet light. (n=2 for p97), (n=1 for RAP)
FIG. 38. Effect of p97 and RAP treatments in U-87 cells on expression of cubulin (A), P97 (B) and Megalin (C). The amplified PCR products were electrophoresed on a 2% agarose gel and visualized under ultraviolet light. (n=1). Quantification was by densitometry of p97 and RAP treatments on the RNA levels of LRP1B, LRP, LDL-R, cubilin, endogenous p97 and megalin. Results are expressed as ratios of RNA levels between control and treated U-87 cells.
RNA extraction. Cells in six-wells plate or in 75 cm^2 plastic tissue culture flasks were grown at 37° C. under 5% CO2 with optimal culture medium to 80-90% confluence. Total cellular RNA was preserved in Trizol (Gibco BRL, Burlington, ON). The solution are frozen at −80° C. until extraction. The solution was defroze and mixed with 5:1 chloroform for 3 minutes at room temperature. The suspension was centrifugated at 12000 g at 4° C. […]

Molecule	Kd ([1]; Site 1, published value) [nM]	Kd ([1]; Site 2, published value) [nM]	Brain/serum ratio [2]	Inhibition of the transcytosis of bovine [125I]-lactoferrin [3]	Expression of the Cubilin receptor [4]
B1	35	1900			
B2			0.025	more than 75%	induces the expression
